Data reported in paper PMC9284671 (Structure (London, England : 1993), 2022).

Key:
[1] = target: SARS-CoV-2 S-dTM (soluble spike protein residues 1-1,206 of wild-type WA-1 strain) (SARS-CoV-2 WA-1, UniProt P0DTC2); test: ELISA
[2] = target: hCoV-HKU1 S2P (pre-fusion-stabilized soluble spike) (hCoV-HKU1 isolate N1, UniProt Q5MQD0, stabilised); test: ELISA
[3] = target: hCoV-OC43 S2P (pre-fusion-stabilized soluble spike) (hCoV-OC43 (AAT84354.1, cross-referenced …, UniProt P36334, stabilised)); test: ELISA
[4] = target: T1, SARS-CoV-2 spike S2 subunit (SARS-CoV-2 (WA-1 / Wuhan-Hu-1), UniProt P0DTC2); test: far-Western, overlay or dot blot
[5] = target: T2, SARS-CoV spike peptide #154 (PELDSFKEELDKYFKNH) (SARS-CoV); test: far-Western, overlay or dot blot
T2 chain: PELDSFKEELDKYFKNH

[6] = target: MERS-CoV full-length spike (EMC) (MERS-CoV EMC/2012 (GenBank AFS88936), UniProt K0BRG7); test: flow cytometry on cells
[7] = target: SARS-CoV full-length spike (Urbani) (SARS-CoV Urbani, UniProt P59594); test: flow cytometry on cells
[8] = target: hCoV-OC43 full-length spike (hCoV-OC43 (AAT84354.1, cross-referenced …, UniProt P36334)); test: flow cytometry on cells
[9] = target: SARS-CoV-2 full-length spike (WA-1) (SARS-CoV-2 WA-1 (GenBank QHD43416.1), UniProt P0DTC2); test: flow cytometry on cells
[10] = target: hCoV-HKU1 full-length spike (hCoV-HKU1 isolate N1, UniProt Q5MQD0); test: flow cytometry on cells
[11] = target: T1, SARS-CoV-2 spike S2 subunit; test: negative-stain electron microscopy

Measured: binding result

B1: WS6 (monoclonal antibody, IgG) (antibody, V domains shown)
VH: EVQFQQSGTVLARPGASVKMSCKASGYTFTNYWIHWVKQRPGQGLEYIGGTYPGNGDTTYNQKFKGKAKVTAVTPTSTAYMDLSSLTNEDSAVYYCTRTGSYFDYWGQGTTLTVSS
VL: QIVLTQSPAIMSASPGEKVTISCSATSSVSYIYWYQQRPGSSPKPWIYRTSNLASGVPVRFSGSGSGTSYSLTISNMEAEDAATYYCQQYQSYPPTFGAGTKLELK
not listed: [11]
binds: all other assays above

B2: WS6 Fab (antigen-binding fragment of WS6) (Fab, V domains shown)
VH: EVQFQQSGTVLARPGASVKMSCKASGYTFTNYWIHWVKQRPGQGLEYIGGTYPGNGDTTYNQKFKGKAKVTAVTPTSTAYMDLSSLTNEDSAVYYCTRTGSYFDYWGQGTTLTVSS
VL: QIVLTQSPAIMSASPGEKVTISCSATSSVSYIYWYQQRPGSSPKPWIYRTSNLASGVPVRFSGSGSGTSYSLTISNMEAEDAATYYCQQYQSYPPTFGAGTKLELK
binds: [11]
